Experimental data published in publication PMC3377666 (2012).

B1: DNA polymerase delta core (protein)
chain 1: MDGKRRPGPGPGVPPKRARGGLWDDDDAPRPSQFEEDLALMEEMEAEHRLQEQEEEELQSVLEGVADGQVPPSAIDPRWLRPTPPALDPQTEPLIFQQLEIDHYVGPAQPVPGGPPPSRGSVPVLRAFGVTDEGFSVCCHIHGFAPYFYTPAPPGFGPEHMGDLQRELNLAISRDSRGGRELTGPAVLAVELCSRESMFGYHGHGPSPFLRITVALPRLVAPARRLLEQGIRVAGLGTPSFAPYEANVDFEIRFMVDTDIVGCNWLELPAGKYALRLKEKATQCQLEADVLWSDVVSHPPEGPWQRIAPLRVLSFDIECAGRKGIFPEPERDPVIQICSLGLRWGEPEPFLRLALTLRPCAPILGAKVQSYEKEEDLLQAWSTFIRIMDPDVITGYNIQNFDLPYLISRAQTLKVQTFPFLGRVAGLCSNIRDSSFQSKQTGRRDTKVVSMVGRVQMDMLQVLLREYKLRSYTLNAVSFHFLGEQKEDVQHSIITDLQNGNDQTRRRLAVYCLKDAYLPLRLLERLMVLVNAVEMARVTGVPLSYLLSRGQQVKVVSQLLRQAMHEGLLMPVVKSEGGEDYTGATVIEPLKGYYDVPIATLDFSSLYPSIMMAHNLCYTTLLRPGTAQKLGLTEDQFIRTPTGDEFVKTSVRKGLLPQILENLLSARKRAKAELAKETDPLRRQVLDGRQLALKVSANSVYGFTGAQVGKLPCLEISQSVTGFGRQMIEKTKQLVESKYTVENGYSTSAKVVYGDTDSVMCRFGVSSVAEAMALGREAADWVSGHFPSPIRLEFEKVYFPYLLISKKRYAGLLFSSRPDAHDRMDCKGLEAVRRDNCPLVANLVTASLRRLLIDRDPEGAVAHAQDVISDLLCNRIDISQLVITKELTRAASDYAGKQAHVELAERMRKRDPGSAPSLGDRVPYVIISAAKGVAAYMKSEDPLFVLEHSLPIDTQYYLEQQLAKPLLRIFEPILGEGRAEAVLLRGDHTRCKTVLTGKVGGLLAFAKRRNCCIGCRTVLSHQGAVCEFCQPRESELYQKEVSHLNALEERFSRLWTQCQRCQGSLHEDVICTSRDCPIFYMRKKVRKDLEDQEQLLRRFGPPGPEAW
chain 2: not shown
B2: DNA polymerase delta core+p12 (protein)
chain 1: B1 chain 1
chain 2: not shown
chain 3: MGRKRLITDSYPVVKRREGPAGHSKGELAPELGEEPQPRDEEEAELELLRQFDLAWQYGPCTGITRLQRWCRAKQMGLEPPPEVWQVLKTHPGDPRFQCSLWHLYPL

Biological target: PCNA (Homo sapiens, UniProt P12004)
Sequence (P12004 whole entry): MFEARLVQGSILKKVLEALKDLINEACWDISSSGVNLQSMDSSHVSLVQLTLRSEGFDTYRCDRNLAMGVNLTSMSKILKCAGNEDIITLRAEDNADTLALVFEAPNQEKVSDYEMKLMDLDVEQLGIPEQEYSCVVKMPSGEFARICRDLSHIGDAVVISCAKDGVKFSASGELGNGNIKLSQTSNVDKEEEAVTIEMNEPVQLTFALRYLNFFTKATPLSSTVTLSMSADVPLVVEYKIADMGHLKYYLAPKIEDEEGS
Assay: enzyme activity assay

| Binder | Kd [nM] |
| --- | --- |
| B1 | 73 |
| B2 | 8.7 |
